Laboratory results: the supplement of paper PMC10724198
± gives the standard deviation of the averaged measurements.

Key:
Saccharomyces cerevisiae [1] = test: protein stability index of tFT-peptide fusion in deletion strain of DOA10 (PSI (0-1 scale)); higher = more stable (slower turnover)
Procedure: (§1)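 MPS profiling in S. cerevisiae of two library types built from selected 12-aa C-degron peptides (IN1, IN2, LN1, LN3, VN2, R1-R5, W1-W3, Atg1 and Rpa12 C-termini): saturation mutagenesis libraries and C-terminal +1 capping libraries (13 aa). Each peptide is fused to the C-terminus of a sfGFP-mCherry timer, after a GGGS linker. Cells are FACS-sorted into 8 mCherry/sfGFP bins and sequenced. PSI runs from 0 (unstable) to 1 (stable), measured once in wild type and in the das1Δ or doa10Δ background.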

Saccharomyces cerevisiae [2] = test: protein stability index of tFT-peptide fusion in wild type (PSI (0-1 scale)); higher = more stable (slower turnover); conditions: genetic background: wild type
Procedure: as §1

Saccharomyces cerevisiae [3] = test: protein stability index of tFT-peptide fusion in deletion strain of DAS1 (PSI (0-1 scale)); higher = more stable (slower turnover)
Procedure: as §1

Saccharomyces cerevisiae [4] = test: protein stability index of tFT-peptide fusion (C-terminal peptide) (PSI (0-1 scale)); higher = more stable (slower turnover)
Procedure: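 MPS profiling in S. cerevisiae of the tFT-X12 degron library: putative degron peptides plus stable controls, 12 aa, fused to the C-terminus of a sfGFP-mCherry timer. Cells are FACS-sorted into 8 mCherry/sfGFP bins and deep-sequenced. PSI runs from 0 (unstable) to 1 (stable). Backgrounds are wild type, das1Δ and doa10Δ at 30 °C, and wild type, das1Δ, cdc34-1 and cdc53-1 at 37 °C; 2-3 technical replicates each.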
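For protein stability index of tFT-peptide fusion (C-terminal peptide) in this document: PSI is a weighted mean of sequencing reads over stability bins, variants kept only with over 10 reads, mCherry proximal and sfGFP distal, peptide attached via GGGS linker.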
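For protein stability index of tFT-peptide fusion in deletion strain of DAS1 in this document: PSI is a weighted mean of each variant's read distribution over the sorted stability bins, computed only for variants having over 10 reads in total.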
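For protein stability index of tFT-peptide fusion in deletion strain of DOA10 in this document: PSI per variant is the weighted mean of its sequencing read distribution over the sorted stability bins, counting only variants with over 10 reads summed across bins.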
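For protein stability index of tFT-peptide fusion in wild type in this document: PSI derived as read-weighted mean over the 8 sorting bins, only variants exceeding 10 total reads kept, mCherry placed adjacent to the peptide and sfGFP distal.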

Sequence | protein stability index (Saccharomyces cerevisiae [1]) | protein stability index (Saccharomyces cerevisiae [2]) | protein stability index (Saccharomyces cerevisiae [3]) | further results
AFTLPMCPLLLR | 0.653 | 0.171 | – | –
AICLPMCPLLLR | 0.632 | 0.224 | – | –
AILLPMCPLLLR | 0.612 | 0.281 | – | –
AITLPMCALLLR | 0.638 | 0.149 | – | –
AITLPMCPLLKR | 0.676 | 0.645 | – | –
AITLPMCPLLLI | 0.596 | 0.493 | – | –
AITLPMCPLLLRD | 0.65 | 0.422 | – | –
AITLPMCPLLLV | 0.417 | 0.349 | – | –
AITLPMCPLLVR | 0.231 | 0.181 | – | –
AITLPMCPLTLR | 0.672 | 0.363 | – | –
AITLPMCQLLLR | 0.663 | 0.174 | – | –
AITLPMEPLLLR | 0.67 | 0.441 | – | –
AITLPMVPLLLR | 0.622 | 0.153 | – | –
AITLPNCPLLLR | 0.682 | 0.337 | – | –
AITLPSCPLLLR | 0.669 | 0.304 | – | –
AITVPMCPLLLR | 0.656 | 0.299 | – | –
ARWGVGLWRGAS | – | 0.372 | 0.685 | protein stability index (Saccharomyces cerevisiae [4]; genetic background: cdc34-1, temperature: 37 C): 0.664 ± 0.02; protein stability index (Saccharomyces cerevisiae [4]; genetic background: cdc53-1, temperature: 37 C): 0.756 ± 0.0077; protein stability index (Saccharomyces cerevisiae [4]; genetic background: das1 deletion, temperature: 30 C): 0.6508 ± 0.0062; protein stability index (Saccharomyces cerevisiae [4]; genetic background: das1 deletion, temperature: 37 C): 0.76494 ± 7.7e-05; protein stability index (Saccharomyces cerevisiae [4]; genetic background: doa10 deletion, temperature: 30 C): 0.282 ± 0.018; protein stability index (Saccharomyces cerevisiae [4]; genetic background: wild type, temperature: 30 C): 0.299 ± 0.029; protein stability index (Saccharomyces cerevisiae [4]; genetic background: wild type, temperature: 37 C): 0.618 ± 0.012
CKVSLPILLFFR | 0.621 | 0.0542 | – | –
CLASLPILLFFR | 0.626 | 0.0826 | – | –
CLHSLPILLFFR | 0.626 | 0.0715 | – | –
CLVRLPILLFFR | 0.595 | 0.0563 | – | –
CLVSAPILLFFR | 0.639 | 0.11 | – | –

Sequence | protein stability index (Saccharomyces cerevisiae [1]) | protein stability index (Saccharomyces cerevisiae [2]) | protein stability index (Saccharomyces cerevisiae [3]) | further results
CLVSCPILLFFR | 0.578 | 0.0926 | – | –
CLVSGPILLFFR | 0.631 | 0.217 | – | –
CLVSIPILLFFR | 0.556 | 0.057 | – | –
CLVSLPILLFFRE | 0.582 | 0.148 | – | –
CLVSLPILLFFRN | 0.531 | 0.0659 | – | –
CLVSLPILLFMR | 0.56 | 0.0691 | – | –
CLVSLPILLMFR | 0.581 | 0.0704 | – | –
CLVSLPILLPFR | 0.67 | 0.642 | – | –
CLVSLPILLRFR | 0.647 | 0.153 | – | –
CLVSLPILMFFR | 0.591 | 0.0684 | – | –
CLVSLPILTFFR | 0.643 | 0.523 | – | –
CLVSLPNLLFFR | 0.685 | 0.11 | – | –
PSLAASFWRPVG | – | 0.656 | 0.677 | –
PSLAASFWRSVG | – | 0.168 | 0.699 | –
PSLAASFWRVGG | – | 0.676 | 0.677 | –
PSLAASFWRVVGH | – | 0.681 | 0.707 | –
PSLAASFWRVVGL | – | 0.683 | 0.713 | –
PSLAASFWRVVGP | – | 0.684 | 0.692 | –
PSLAASFWRVVR | – | 0.688 | 0.685 | –
PSLAASFWRVWG | – | 0.38 | 0.696 | –
PSLAASFWYVVG | – | 0.655 | 0.708 | –
PSLAASIWRVVG | – | 0.143 | 0.69 | –

Sequence | protein stability index (Saccharomyces cerevisiae [1]) | protein stability index (Saccharomyces cerevisiae [2]) | protein stability index (Saccharomyces cerevisiae [3]) | further results
PSLAASSWRVVG | – | 0.167 | 0.694 | –
PSLAESFWRVVG | – | 0.482 | 0.685 | –
PSLALSFWRVVG | – | 0.183 | 0.669 | –
PSLASSFWRVVG | – | 0.165 | 0.696 | –
PSLAWSFWRVVG | – | 0.0943 | 0.724 | –
PSLNASFWRVVG | – | 0.159 | 0.699 | –
PSPAASFWRVVG | – | 0.115 | 0.69 | –
PTKRNHLIKLLN | – | 0.114 | 0.582 | –
PVVYLSCVACIN | – | 0.0343 | 0.0265 | –
QKHKKGQKQKIN | – | 0.0918 | 0.676 | –
RDIQPLPVQFLN | – | 0.0918 | 0.596 | –
REIQPLPVQFLN | – | 0.121 | 0.61 | –
RLEQPLPVQFLN | – | 0.0758 | 0.574 | –
RLIAPLPVQFLN | – | 0.0614 | 0.738 | –
RLIFPLPVQFLN | – | 0.0304 | 0.553 | –
RLILPLPVQFLN | – | 0.0596 | 0.589 | –
RLIMPLPVQFLN | – | 0.0368 | 0.572 | –
RLIQFLPVQFLN | – | 0.00974 | 0.539 | –
RLIQKLPVQFLN | – | 0.0183 | 0.589 | –
RLIQPHPVQFLN | – | 0.0682 | 0.776 | –
RLIQPLPFQFLN | – | 0.0405 | 0.624 | –
RLIQPLPLQFLN | – | 0.0437 | 0.619 | –

Sequence | protein stability index (Saccharomyces cerevisiae [1]) | protein stability index (Saccharomyces cerevisiae [2]) | protein stability index (Saccharomyces cerevisiae [3]) | further results
RLIQPLPVLFLN | – | 0.0545 | 0.542 | –
RLIQPLPVQFDN | – | 0.668 | 0.624 | –
RLIQPLPVQFLI | – | 0.0642 | 0.537 | –
RLIQPLPVQFLP | – | 0.62 | 0.57 | –
RLIQPLPVQFMN | – | 0.0175 | 0.614 | –
RLIQPLPVQFRN | – | 0.533 | 0.609 | –
RLIQPLPVQFVN | – | 0.0426 | 0.598 | –
RLIQPLPVQFWN | – | 0.132 | 0.618 | –
RLIQPLPVVFLN | – | 0.047 | 0.565 | –
RLIQPLPVWFLN | – | 0.0563 | 0.609 | –
RLIQPLSVQFLN | – | 0.0547 | 0.594 | –
RLIQPLTVQFLN | – | 0.065 | 0.608 | –
RLIQTLPVQFLN | – | 0.0873 | 0.594 | –
RLKQPLPVQFLN | – | 0.181 | 0.559 | –
RNIQPLPVQFLN | – | 0.0759 | 0.61 | –
RPIQPLPVQFLN | – | 0.0515 | 0.593 | –
RRWRVGLWRGAS | – | 0.389 | 0.684 | –
RVIQPLPVQFLN | – | 0.0531 | 0.576 | –
RWIQPLPVQFLN | – | 0.0536 | 0.686 | –
SSMRWTFRYWVN | – | 0.113 | 0.608 | –
TRWRVGLWRGAS | – | 0.394 | 0.602 | –
TTSCGYKFRTNN | – | 0.255 | 0.677 | –

Sequence | protein stability index (Saccharomyces cerevisiae [1]) | protein stability index (Saccharomyces cerevisiae [2]) | protein stability index (Saccharomyces cerevisiae [3]) | further results
VDGAVGGWRLVG | – | 0.155 | 0.685 | –
VRCAVGGWRLVG | – | 0.126 | 0.716 | –
VRGAVGGARLVG | – | 0.618 | 0.673 | –
VRGAVGGKRLVG | – | 0.649 | 0.677 | –
VRGAVGGWALVG | – | 0.438 | 0.667 | –
VRGAVGGWRLCG | – | 0.239 | 0.676 | –
VRGAVGGWRLMG | – | 0.177 | 0.66 | –
VRGAVGGWRLVGE | – | 0.612 | 0.66 | –
VRGAVGGWRLVN | – | 0.157 | 0.673 | –
VRGAVGGWRLVQ | – | 0.24 | 0.684 | –
VRGAVGGWRLWG | – | 0.534 | 0.717 | –
VRGAVGGWRYVG | – | 0.157 | 0.686 | –
VRGAVGHWRLVG | – | 0.157 | 0.678 | –
VRGAVIGWRLVG | – | 0.146 | 0.68 | –
VRGAWGGWRLVG | – | 0.147 | 0.692 | –
VRPAVGGWRLVG | – | 0.106 | 0.68 | –
WSLAASFWRVVG | – | 0.116 | 0.668 | –
YKHKKGQKQKIN | – | 0.176 | 0.607 | –
YRWRVGLWRGAS | – | 0.223 | 0.66 | –
